Assay results taken from IntAct's records for PubMed 29426014.

B1: Ubiquitin-protein ligase (Homo sapiens), Q05086-3 (parent)
chain: MATACKRSGEPQSDDIEASRMKRAAAKHLIERYYHQLTEGCGNEACTNEFCASCPTFLRMDNNAAAIKALELYKINAKLCDPHPSKKGASSAYLENSKGAPNNSCSEIKMNKKGARIDFKDVTYLTEEKVYEILELCREREDYSPLIRVIGRVFSSAEALVQSFRKVKQHTKEELKSLQAKDEDKDEDEKEKAACSAAAMEEDSEASSSRIGDSSQGDNNLQKLGPDDVSVDIDAIRRVYTRLLSNEKIETAFLNALVYLSPNVECDLTYHNVYSRDPNYLNLFIIVMENRNLHSPEYLEMALPLFCKAMSKLPLAAQGKLIRLWSKYNADQIRRMMETFQQLITYKVISNEFNSRNLVNDDDAIVAASKCLKMVYYANVVGGEVDTNHNEEDDEEPIPESSELTLQELLGEERRNKKGPRVDPLETELGVKTLDCRKPLIPFEEFINEPLNEVLEMDKDYTFFKVETENKFSFMTCPFILNAVTKNLGLYYDNRIRMYSERRITVLYSLVQGQQLNPYLRLKVRRDHIIDDALVRLEMIAMENPADLKKQLYVEFEGEQGVDEGGVSKEFFQLVVEEIFNPDIGMFTYDESTKLFWFNPSSFETEGQFTLIGIVLGLAIYNNCILDVHFPMVVYRKLMGKKGTFRDLGDSHPVLYQSLKDLLEYEGNVEDDMMITFQISQTDLFGNPMMYDLKENGDKIPITNENRKEFVNLYSDYILNKSVEKQFKAFRRGFHMVTNESPLKYLFRPEEIELLICGSRNLDFQALEETTEYDGGYTRDSVLIREFWEIVHSFTDEQKRLFLQFTTGTDRAPVGGLGKLKMIIAKNGPDTERLPTSHTCFNVLLLPEYSSKEKLKERLLKAITYAKGFGML
partner: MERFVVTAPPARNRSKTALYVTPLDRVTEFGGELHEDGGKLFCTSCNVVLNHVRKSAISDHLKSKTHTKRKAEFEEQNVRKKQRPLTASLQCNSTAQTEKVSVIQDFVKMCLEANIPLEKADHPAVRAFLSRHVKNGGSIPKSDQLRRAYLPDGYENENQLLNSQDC
B2: Ubiquitin-protein ligase (Homo sapiens), Q05086-2 (parent)
chain: MKRAAAKHLIERYYHQLTEGCGNEACTNEFCASCPTFLRMDNNAAAIKALELYKINAKLCDPHPSKKGASSAYLENSKGAPNNSCSEIKMNKKGARIDFKDVTYLTEEKVYEILELCREREDYSPLIRVIGRVFSSAEALVQSFRKVKQHTKEELKSLQAKDEDKDEDEKEKAACSAAAMEEDSEASSSRIGDSSQGDNNLQKLGPDDVSVDIDAIRRVYTRLLSNEKIETAFLNALVYLSPNVECDLTYHNVYSRDPNYLNLFIIVMENRNLHSPEYLEMALPLFCKAMSKLPLAAQGKLIRLWSKYNADQIRRMMETFQQLITYKVISNEFNSRNLVNDDDAIVAASKCLKMVYYANVVGGEVDTNHNEEDDEEPIPESSELTLQELLGEERRNKKGPRVDPLETELGVKTLDCRKPLIPFEEFINEPLNEVLEMDKDYTFFKVETENKFSFMTCPFILNAVTKNLGLYYDNRIRMYSERRITVLYSLVQGQQLNPYLRLKVRRDHIIDDALVRLEMIAMENPADLKKQLYVEFEGEQGVDEGGVSKEFFQLVVEEIFNPDIGMFTYDESTKLFWFNPSSFETEGQFTLIGIVLGLAIYNNCILDVHFPMVVYRKLMGKKGTFRDLGDSHPVLYQSLKDLLEYEGNVEDDMMITFQISQTDLFGNPMMYDLKENGDKIPITNENRKEFVNLYSDYILNKSVEKQFKAFRRGFHMVTNESPLKYLFRPEEIELLICGSRNLDFQALEETTEYDGGYTRDSVLIREFWEIVHSFTDEQKRLFLQFTTGTDRAPVGGLGKLKMIIAKNGPDTERLPTSHTCFNVLLLPEYSSKEKLKERLLKAITYAKGFGML
B3: Ubiquitin-protein ligase (Homo sapiens), Q05086-3 (parent)
chain: B1 chain
partner: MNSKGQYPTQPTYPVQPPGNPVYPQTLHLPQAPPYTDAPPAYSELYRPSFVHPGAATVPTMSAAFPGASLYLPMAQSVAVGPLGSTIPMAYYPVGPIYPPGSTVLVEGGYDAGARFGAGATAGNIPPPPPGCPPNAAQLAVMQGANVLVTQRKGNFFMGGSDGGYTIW
B4: Ubiquitin-protein ligase (Homo sapiens), Q05086-1 (parent)
chain: MEKLHQCYWKSGEPQSDDIEASRMKRAAAKHLIERYYHQLTEGCGNEACTNEFCASCPTFLRMDNNAAAIKALELYKINAKLCDPHPSKKGASSAYLENSKGAPNNSCSEIKMNKKGARIDFKDVTYLTEEKVYEILELCREREDYSPLIRVIGRVFSSAEALVQSFRKVKQHTKEELKSLQAKDEDKDEDEKEKAACSAAAMEEDSEASSSRIGDSSQGDNNLQKLGPDDVSVDIDAIRRVYTRLLSNEKIETAFLNALVYLSPNVECDLTYHNVYSRDPNYLNLFIIVMENRNLHSPEYLEMALPLFCKAMSKLPLAAQGKLIRLWSKYNADQIRRMMETFQQLITYKVISNEFNSRNLVNDDDAIVAASKCLKMVYYANVVGGEVDTNHNEEDDEEPIPESSELTLQELLGEERRNKKGPRVDPLETELGVKTLDCRKPLIPFEEFINEPLNEVLEMDKDYTFFKVETENKFSFMTCPFILNAVTKNLGLYYDNRIRMYSERRITVLYSLVQGQQLNPYLRLKVRRDHIIDDALVRLEMIAMENPADLKKQLYVEFEGEQGVDEGGVSKEFFQLVVEEIFNPDIGMFTYDESTKLFWFNPSSFETEGQFTLIGIVLGLAIYNNCILDVHFPMVVYRKLMGKKGTFRDLGDSHPVLYQSLKDLLEYEGNVEDDMMITFQISQTDLFGNPMMYDLKENGDKIPITNENRKEFVNLYSDYILNKSVEKQFKAFRRGFHMVTNESPLKYLFRPEEIELLICGSRNLDFQALEETTEYDGGYTRDSVLIREFWEIVHSFTDEQKRLFLQFTTGTDRAPVGGLGKLKMIIAKNGPDTERLPTSHTCFNVLLLPEYSSKEKLKERLLKAITYAKGFGML

Variants of: B1
Details: with cgbp1_human CGGBP1, Q9UFW8

Row | effect of a mutation on the interaction | Variant
1 | causing an interaction | C840A

Variants of: B2
Details: with ZNF250, P15622-3
Target sequence in this assay (P15622 other isoform, or with tags, fused parts or gaps): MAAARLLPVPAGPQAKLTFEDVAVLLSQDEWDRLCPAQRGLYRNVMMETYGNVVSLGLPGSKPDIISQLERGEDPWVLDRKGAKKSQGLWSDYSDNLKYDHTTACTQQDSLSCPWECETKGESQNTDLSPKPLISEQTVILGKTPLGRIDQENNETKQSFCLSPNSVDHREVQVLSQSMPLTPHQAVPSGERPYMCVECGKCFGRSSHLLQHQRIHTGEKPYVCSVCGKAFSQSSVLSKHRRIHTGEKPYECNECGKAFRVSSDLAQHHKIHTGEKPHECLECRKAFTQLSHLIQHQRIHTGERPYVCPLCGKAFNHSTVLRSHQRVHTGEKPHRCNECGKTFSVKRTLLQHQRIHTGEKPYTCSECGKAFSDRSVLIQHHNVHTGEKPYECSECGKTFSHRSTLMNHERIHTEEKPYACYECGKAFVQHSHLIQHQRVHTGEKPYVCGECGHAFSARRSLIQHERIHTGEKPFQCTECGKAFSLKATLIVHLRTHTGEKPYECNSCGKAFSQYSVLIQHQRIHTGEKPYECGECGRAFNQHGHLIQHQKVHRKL

Row | effect of a mutation on the interaction | Variant
2 | causing an interaction | C820A

Variants of: B2
Details: with PAX6, P26367-1
Target sequence in this assay (P26367 whole entry): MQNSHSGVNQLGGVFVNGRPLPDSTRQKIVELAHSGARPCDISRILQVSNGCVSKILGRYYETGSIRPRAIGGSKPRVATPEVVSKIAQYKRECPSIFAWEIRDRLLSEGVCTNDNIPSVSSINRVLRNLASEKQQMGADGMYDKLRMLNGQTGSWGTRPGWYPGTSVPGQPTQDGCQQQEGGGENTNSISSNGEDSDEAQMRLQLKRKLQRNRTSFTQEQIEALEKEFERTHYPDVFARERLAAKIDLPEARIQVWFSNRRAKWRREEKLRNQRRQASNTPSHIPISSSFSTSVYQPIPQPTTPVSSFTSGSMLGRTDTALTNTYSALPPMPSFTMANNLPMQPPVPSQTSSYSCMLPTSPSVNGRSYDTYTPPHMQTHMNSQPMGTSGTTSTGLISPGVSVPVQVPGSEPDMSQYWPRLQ

Row | effect of a mutation on the interaction | Variant
3 | causing an interaction | C820A

Variants of: B2
Details: with magac_human MAGEA12, P43365
Target sequence in this assay (P43365 whole entry): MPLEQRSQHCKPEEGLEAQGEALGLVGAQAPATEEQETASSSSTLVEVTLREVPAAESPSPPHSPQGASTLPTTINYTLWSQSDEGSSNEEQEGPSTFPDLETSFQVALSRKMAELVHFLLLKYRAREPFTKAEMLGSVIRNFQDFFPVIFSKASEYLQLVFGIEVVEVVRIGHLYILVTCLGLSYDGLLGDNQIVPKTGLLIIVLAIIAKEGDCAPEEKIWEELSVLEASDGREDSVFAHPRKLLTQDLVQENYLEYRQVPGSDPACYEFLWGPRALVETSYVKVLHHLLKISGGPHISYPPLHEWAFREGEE

Row | effect of a mutation on the interaction | Variant
4 | with no effect | C820A

Variants of: B2
Details: with PSMD4, P55036-1
Target sequence in this assay (P55036 whole entry): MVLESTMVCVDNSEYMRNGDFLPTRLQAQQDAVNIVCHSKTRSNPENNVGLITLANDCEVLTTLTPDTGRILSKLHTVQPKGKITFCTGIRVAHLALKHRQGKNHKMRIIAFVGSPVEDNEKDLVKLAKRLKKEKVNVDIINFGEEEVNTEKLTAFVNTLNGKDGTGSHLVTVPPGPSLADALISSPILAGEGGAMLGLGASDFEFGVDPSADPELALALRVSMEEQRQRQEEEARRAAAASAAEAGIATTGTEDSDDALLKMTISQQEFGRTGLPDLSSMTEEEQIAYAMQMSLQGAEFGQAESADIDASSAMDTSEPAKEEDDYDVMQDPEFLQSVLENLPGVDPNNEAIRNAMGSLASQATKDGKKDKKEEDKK

Row | effect of a mutation on the interaction | Variant
5 | with no effect | C820A

Variants of: B2
Details: with PAX5, Q02548-1
Target sequence in this assay (Q02548 whole entry): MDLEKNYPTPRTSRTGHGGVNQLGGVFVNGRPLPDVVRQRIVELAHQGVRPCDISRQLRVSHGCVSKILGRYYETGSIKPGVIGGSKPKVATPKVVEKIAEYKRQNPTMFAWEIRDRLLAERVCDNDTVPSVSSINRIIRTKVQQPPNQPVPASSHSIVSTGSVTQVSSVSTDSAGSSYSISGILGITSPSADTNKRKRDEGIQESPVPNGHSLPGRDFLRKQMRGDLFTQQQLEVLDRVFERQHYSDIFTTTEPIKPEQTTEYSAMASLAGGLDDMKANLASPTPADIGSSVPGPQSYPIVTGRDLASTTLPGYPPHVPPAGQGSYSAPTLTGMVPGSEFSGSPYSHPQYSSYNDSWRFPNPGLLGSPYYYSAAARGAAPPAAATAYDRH

Row | effect of a mutation on the interaction | Variant
6 | causing an interaction | C820A

Variants of: B2
Details: with PTCD3, Q96EY7-1

Row | effect of a mutation on the interaction | Variant
7 | with no effect | C820A

Variants of: B2
Details: with ubql2_human UBQLN2, Q9UHD9
Target sequence in this assay (Q9UHD9 whole entry): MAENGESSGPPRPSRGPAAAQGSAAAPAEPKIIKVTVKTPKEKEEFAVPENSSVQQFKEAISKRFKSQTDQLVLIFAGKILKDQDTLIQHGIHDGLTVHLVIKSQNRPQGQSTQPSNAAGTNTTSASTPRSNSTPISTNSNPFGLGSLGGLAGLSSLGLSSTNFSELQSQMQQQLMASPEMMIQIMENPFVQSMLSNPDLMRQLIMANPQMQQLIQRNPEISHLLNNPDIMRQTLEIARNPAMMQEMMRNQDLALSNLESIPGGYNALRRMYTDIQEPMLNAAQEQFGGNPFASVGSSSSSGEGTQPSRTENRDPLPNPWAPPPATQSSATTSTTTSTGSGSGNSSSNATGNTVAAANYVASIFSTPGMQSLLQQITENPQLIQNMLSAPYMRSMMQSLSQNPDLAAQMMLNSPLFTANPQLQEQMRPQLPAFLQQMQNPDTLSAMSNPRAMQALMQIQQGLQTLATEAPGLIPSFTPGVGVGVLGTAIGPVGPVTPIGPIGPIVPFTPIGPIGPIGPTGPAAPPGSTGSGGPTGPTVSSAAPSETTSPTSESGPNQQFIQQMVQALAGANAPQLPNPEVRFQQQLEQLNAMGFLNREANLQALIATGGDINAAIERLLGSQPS

Row | effect of a mutation on the interaction | Variant
8 | with no effect | C820A

Variants of: B2
Details: with UBQLN1, Q9UMX0-1
Target sequence in this assay (Q9UMX0 whole entry): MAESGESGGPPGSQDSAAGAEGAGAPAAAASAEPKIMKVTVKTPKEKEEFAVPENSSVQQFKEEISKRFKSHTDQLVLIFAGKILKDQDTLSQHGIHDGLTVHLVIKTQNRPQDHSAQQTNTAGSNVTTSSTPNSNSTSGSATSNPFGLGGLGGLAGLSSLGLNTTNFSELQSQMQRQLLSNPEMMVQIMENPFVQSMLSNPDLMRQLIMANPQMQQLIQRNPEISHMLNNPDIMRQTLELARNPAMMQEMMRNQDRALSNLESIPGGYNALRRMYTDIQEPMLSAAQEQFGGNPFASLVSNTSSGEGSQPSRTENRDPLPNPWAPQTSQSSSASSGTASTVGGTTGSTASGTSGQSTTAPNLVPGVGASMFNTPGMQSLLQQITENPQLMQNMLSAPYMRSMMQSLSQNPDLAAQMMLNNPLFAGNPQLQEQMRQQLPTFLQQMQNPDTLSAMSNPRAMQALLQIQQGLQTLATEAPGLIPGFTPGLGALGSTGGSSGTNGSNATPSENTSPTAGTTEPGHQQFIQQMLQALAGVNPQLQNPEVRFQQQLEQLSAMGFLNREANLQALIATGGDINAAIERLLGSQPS

Row | effect of a mutation on the interaction | Variant
9 | with no effect | C820A

Variants of: B2
Details: with herc2_human HERC2, O95714

Row | effect of a mutation on the interaction | Variant
10 | causing an interaction | C820A

Variants of: B3
Details: with DAZAP2, Q15038-1

Row | effect of a mutation on the interaction | Variant
11 | causing an interaction | C840A

Variants of: B4
Details: with ZNF250, P15622-3
Target sequence in this assay (P15622 other isoform, or with tags, fused parts or gaps): as the sequence (P15622 other isoform, or with tags, fused parts or gaps) above

Row | effect of a mutation on the interaction | Variant
12 | causing an interaction | C843A

Variants of: B4
Details: with PAX6, P26367-1
Target sequence in this assay (P26367 whole entry): as the sequence (P26367 whole entry) above

Row | effect of a mutation on the interaction | Variant
13 | causing an interaction | C843A

Variants of: B4
Details: with magac_human MAGEA12, P43365
Target sequence in this assay (P43365 whole entry): as the sequence (P43365 whole entry) above

Row | effect of a mutation on the interaction | Variant
14 | causing an interaction | C843A

Variants of: B4
Details: with PSMD4, P55036-1
Target sequence in this assay (P55036 whole entry): as the sequence (P55036 whole entry) above

Row | effect of a mutation on the interaction | Variant
15 | with no effect | C843A

Variants of: B4
Details: with PAX5, Q02548-1
Target sequence in this assay (Q02548 whole entry): as the sequence (Q02548 whole entry) above

Row | effect of a mutation on the interaction | Variant
16 | causing an interaction | C843A

Variants of: B4
Details: with PTCD3, Q96EY7-1

Row | effect of a mutation on the interaction | Variant
17 | with no effect | C843A

Variants of: B4
Details: with ubql2_human UBQLN2, Q9UHD9
Target sequence in this assay (Q9UHD9 whole entry): as the sequence (Q9UHD9 whole entry) above

Row | effect of a mutation on the interaction | Variant
18 | with no effect | C843A

Variants of: B4
Details: with UBQLN1, Q9UMX0-1
Target sequence in this assay (Q9UMX0 whole entry): as the sequence (Q9UMX0 whole entry) above

Row | effect of a mutation on the interaction | Variant
19 | with no effect | C843A
